Experimental findings from patent US20250179196A1 (Janssen / Centocor, published 2025) are described below.

In experiment [1] the target is T1, human IL-23R expressed on the cell surface of stably transfected iLite and HEK cell lines (human, UniProt Q5VWK5 24-629).
T1 construct: whole, on cells; Same receptor on two transfected cell lines; the cell line is named under assay; also called human IL-23R iLite cells; human IL-23R HEK cells
T1 sequence (looked up): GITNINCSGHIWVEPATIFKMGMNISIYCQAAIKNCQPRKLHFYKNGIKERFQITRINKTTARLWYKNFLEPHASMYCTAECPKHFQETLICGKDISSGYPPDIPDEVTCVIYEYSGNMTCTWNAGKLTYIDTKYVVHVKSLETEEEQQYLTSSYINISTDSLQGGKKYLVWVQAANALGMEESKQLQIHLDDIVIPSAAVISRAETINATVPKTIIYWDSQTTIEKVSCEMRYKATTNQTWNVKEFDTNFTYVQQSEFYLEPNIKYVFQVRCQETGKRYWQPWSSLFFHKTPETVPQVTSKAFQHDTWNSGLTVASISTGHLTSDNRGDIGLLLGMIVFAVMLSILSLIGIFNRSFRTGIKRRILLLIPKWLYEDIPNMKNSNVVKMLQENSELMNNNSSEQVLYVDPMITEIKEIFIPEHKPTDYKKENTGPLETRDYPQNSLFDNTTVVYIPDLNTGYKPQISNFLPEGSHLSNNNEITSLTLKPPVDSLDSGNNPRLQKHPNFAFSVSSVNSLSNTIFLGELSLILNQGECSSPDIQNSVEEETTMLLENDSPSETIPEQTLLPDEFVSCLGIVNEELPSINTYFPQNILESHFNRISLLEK
The experiment in a line: flow cytometry on human IL-23R HEK cells, Expt D (8-point, 96well). The procedure:
HEK-IL-23R cell concentration response mAb binding (8-point, 96-well assay). […] HEK-IL-23R and HEK-parental cells (12.5 μL of each, 120000 cells total) were plated in 2× replicate on 96-well V-bottom plates (Corning, Cat #3357) into 37° C. warmed Assay medium containing serially diluted IL-23R mAbs to a final volume of 150 μL. IL-23R mAbs were allowed to bind to cells for 30 minutes, at 37° C. […] Cells were next washed twice in ice-cold stain buffer, then resuspended in a final volume of 30 μL with Sytox Green viability dye (ThermoFisher, Cat #S7020). Plates were kept on ice until run for analysis on the iQue. All washes were performed by centrifugation (800 rcf, 3 minutes) followed by flick decantation to remove supernatants. Cell-binding to HEK-IL-23R cells was measured with FlowJo, by gating for single, viable cells and determining the geometric mean fluorescence intensity (MFI) for the 647 detection antibody. Geometric mean fluorescence intensities were plotted over log mAb concentrations fitted with a dose response curve with variable slope using GraphPad Prism.
For orientation: A flow cytometer gives signals particle by particle.

Experiment [2] addresses T1, human IL-23R expressed on the cell …. The experiment in a line: flow cytometry on human IL-23R HEK cells, Expt E (11-point, 384well). How it is done: HEK-IL-23R cell concentration response mAb binding (11-point, 384-well assay). […] IL-23R mAbs were allowed to bind to cells for 30 minutes, at 37° C. […] Cells were next washed twice in ice-cold stain buffer, then resuspended in a final volume of 10 μL with Sytox Green viability dye (ThermoFisher, Cat #S7020). Plates were kept on ice until run for analysis on the iQue. All washes were performed by centrifugation (800 rcf, 3 minutes) followed by automated aspiration to remove supernatants with plate washers. Cell-binding to HEK-IL-23R cells was measured with FlowJo, by gating for single, viable cells and determining the geometric mean fluorescence intensity (MFI) for the 647 detection antibody. Geometric mean fluorescence intensities were plotted over log mAb concentrations fitted with a dose response curve with variable slope using GraphPad Prism.

B1: I23RB259 (antibody, mouse IgG2a, kappa, V domains shown)
VH: QVQLVQSGAEVKKPGSSVKVSCKASGGTFSSYGISWVRQAPGQGLEWMGWISPIFGTTNYAQKFQGRVTITADESTSTAYMELSSLRSEDTAVYYCARMMMQSLDYWGQGTLVTVSS
VL: not shown
notes: phage display; human V, mouse IgG2a/kappa
By EC50 is commonly meant the concentration giving half of the maximal effect. Read a high EC50 as a need for much substance. On to B1, for which, in experiment [1], the EC50 worked out at 29.7 nM. In addition, in experiment [2], the EC50 is above 50 nM and the “MFI (6.4 nM)” value was determined as 30900 MFI.

B2: I23RB268 (antibody, mouse IgG2a, kappa, V domains shown)
VH: QVQLVQSGAEVKKPGSSVKVSCKASGGTFSSYYIHWVRQAPGQGLEWMGGIIPIFGYANYAQKFQGRVTITADESTSTAYMELSSLRSEDTAVYYCARDPGSYGSVYYRRSYYFDYWGQGTLVTVSS
VL: EIVLTQSPATLSLSPGERATLSCRASQSVSSYLAWYQQKPGQAPRLLIYDASNRATGIPARFSGSGSGTDFTLTISSLEPEDFAVYYCQQRSNWPLTFGQGTKVEIKR
notes: as for B1
With B2, in experiment [1], the EC50 was 20.6 nM. Further, in experiment [2], the response was half-maximal at 38.2 nM (EC50) and the “MFI (6.4 nM)” value amounted to 51900 MFI.

B3: I23RB270 (antibody, mouse IgG2a, kappa, V domains shown)
VH: QVQLVQSGAEVKKPGSSVKVSCKASGGTFDSYAISWVRQAPGQGLEWMGGIIPISGYANYAQKFQGRVTITADESTSTAYMELSSLRSEDTAVYYCARDLSGGYLGLRTLYYYYFDYWGQGTLVTVSS
VL: EIVLTQSPATLSLSPGERATLSCRASQSVSSYLAWYQQKPGQAPRLLIYDASNRATGIPARFSGSGSGTDFTLTISSLEPEDFAVYYCQQRSNWPLTFGQGTKVEIKR
notes: as for B1
B3 yielded an EC50 in experiment [1] of 0.5 nM. In addition, in experiment [2], it took 7.2 nM to reach a half-maximal effect (EC50) and the “MFI (6.4 nM)” value turned out to be 243000 MFI.

B4: I23RB269 (antibody, mouse IgG2a, kappa, V domains shown)
VH: QVQLVQSGAEVKKPGSSVKVSCKASGGTFSDASISWVRQAPGQGLEWMGTIIPISGNANYAQKFQGRVTITADESTSTAYMELSSLRSEDTAVYYCARDRYVWYYWDGYFDYWGQGTLVTVSS
VL: not shown
notes: as for B1
As to B4, a half-maximal response in experiment [1] (EC50) required 0.6 nM. Also, in experiment [2], the EC50 amounted to 14.7 nM and the “MFI (6.4 nM)” value stood at 96800 MFI.

B5: I23RB47 (antibody, mouse IgG2a, kappa, V domains shown)
VH: QVQLKESGPGLVAPSQSLSITCTVSGFSLTNYDIHWVRQSPGKGLEWLGVIWSDGRTDYKGAFISRLSISKDNSKSQVFFKMNSLQADDTAIYYCARNNYYRYGRNTMDYWGQGTSVTVSS
VL: DIVLTQSPASQSASLGESVTITCLASQTIGSWLAWYQQKPGKSPQLLIYAATRLADGVPSRFSGSGSGTKFSFKISSLQAEDFVFYYCHQLYSIPLTFGGGTKLEMKR
notes: immunization; mouse IgG2a/kappa
In the case of B5, the EC50 in experiment [1] was 0.2 nM; in experiment [2], 4.1 nM. Besides, in experiment [2], the “MFI (6.4 nM)” value came to 364000 MFI.

B6: I23RB92 (antibody, mouse IgG2a, kappa, V domains shown)
VH: EVQLQQSGPEVVKPGASVKISCKASGYTFTDHTMDWVKQSHGKNLEWIGYIYPKSGGTGYNQKFKNKATLTVDKSSSTAYMEFHSLTSDDSAVYYCARWGLRRDGFVYWGQGTLVTVSA
VL: DIKMTQSPASLAVSLGQRATISCRASQSVSTSKYDYIHWYQQKSGQPPRLLIKYASNLESGVPARFSGSGSGTDFTLNIHPVEEEDTATYYCQHTWEIPYTFGSGTKLELKR
notes: as for B5
On to B6, for which the values for the EC50 in experiment [1] and in experiment [2] were 0.2 nM and 4 nM, respectively. Moreover, the “MFI (6.4 nM)” value in experiment [2] stood at 376000 MFI.

B7: I23RB65 (antibody, mouse IgG2a, kappa, V domains shown)
VH: EVQLQQSGPELVKPGASVKISCKASGYTFTDHTMDWVKQSHGKSLEWIGYIYPKSGNAAYSQKFKSEATLTVDKSSSTAYMEFHSLTSEDSAVYYCARWGLRRDGFTYWGQGTSVTVSS
VL: QIVLTQSPASLAVSLGQRATISCRASQSVSTSSYNYIHWYQQKPGQPPKLLIKYASNLESGVPARFSGSGSGTDFTLNIHPVEEDDTATYYCQHTWEIPYTFGSGTKLEIKR
notes: as for B5
On to B7, for which the EC50 in experiment [1] was determined as 0.3 nM; in experiment [2] it was 4 nM. The “MFI (6.4 nM)” value in experiment [2] stood at 275000 MFI.

B8: I23RB94 (antibody, mouse IgG2a, kappa, V domains shown)
VH: DVQLQESGPELKKPGETVKISCKASGYTFTNYGMNWVRQAPGKSLKWMGWINTNTGEPAYAEEFKGRFAFSLETSASTAYLQINNLKNEDMATYFCARVRQTARATRGYFDVWGTGTTVTVSS
VL: DIVMTQSHKFMSTSVGDRVSITCKASQDVNTAVAWYQQKPGQSPKLLIYSAFYRYPGVPDRFTGSGSGTDFTFTINSVQAEDLAVYCCQQHYTSPLTFGDGTRLEIKR
notes: as for B5
Take B8: the EC50 in experiment [1] stood at 0.1 nM. In experiment [2], the EC50 is 2.8 nM and the “MFI (6.4 nM)” value came out at 364000 MFI.

B9: I23RB161 (antibody, mouse IgG2a, kappa, V domains shown)
VH: EFQLQQSGPELVKPGASVKISCKASVYAFSSSWMNWVKQRPGKGLEWIGRIYPGDGDTNYNGKFKGKATLTADKSSSTAYMQLSSLTSEDSAVYFCARRYDFGSAMDYWGQGTSVTVSS
VL: DIVMTQSPAILSASPGEKVTMTCRASSSVSYMHWYQQKPGSSPKPWIYATSDLASGAPARFSGSGSGTSYSLTISRVEAEDAATYYCQQWSSNPPTFGGGTKLEIKR
notes: as for B5
B9 had an EC50 in experiment [1] of 0.8 nM.

B10: I23RB33 (antibody, mouse IgG2a, kappa, V domains shown)
VH: EVQLQQSGAELVKPGASVKLSCTASGFNIRDIYIHWVKQRPEQGLEWIGRIDPANGHSIYAAKFQGKATITADTSLNIAYMQLSSLTSGDTAVYYCARGSDNDYGRVLAYWGLGTSVTVSS
VL: DIVLTQSPAIMSASPGEKVTMTCRASSSVRSSYLHWYQQKSGASPKLWIYSTSNLASGVPARFSGSGSGTSYSLTITSVEAEDAATYYCQQYTGNPIFTFGSGTKLELKR
notes: as for B5
B10 had an EC50 in experiment [1] of 0.2 nM. In experiment [2], the EC50 stood at 5.6 nM and the “MFI (6.4 nM)” value came out at 306000 MFI.

B11: I23RB76 (antibody, mouse IgG2a, kappa, V domains shown)
VH: EVQLQQSGPELVKPGASVKMSCKASGYTFTDYYMNWMKQSHGKSLEWIGYISPKNGRTGYNQKFKGKATLTVDKSSTTAYMELRSLTSEDSAVYYCAKSNGYYALDYWGQGTTVTVSS
VL: DIVLTQSPATLCVTPGETVSLSCRASQNIYKNLHWFQQKSHRSPRLLIKYASDSISGIPSRFTGSGSGTDYTLSINSVKPEDEGIYYCLQGYSTPWTFGGGTKLEIKR
notes: as for B5
For the molecule B11, the EC50 in experiment [1] turned out to be 0.4 nM; in experiment [2] it was 11.9 nM. Further, the “MFI (6.4 nM)” value in experiment [2] came to 322000 MFI.

B12: I23RB32 (antibody, mouse IgG2a, kappa, V domains shown)
VH: EFQLQQSGPELVKPGASVKLSCKASGYTFTDYALHWVKQSPGQGLEWIGWIYPGGGNTYYNDKFKGKATMTADKSSSTAYMQLSSLTSEDSAVYFCARGRLRRDYPMDYWGQGTSVTVSS
VL: DIVMTQSPSSLTVTAGEKVTMSCKSSQSLLNSGNQKNYLTWYQQKPGQPPKLLIYWASTRESGVPDRFTGSGSGTDFTLTISSVQAEDLAVYYCQNDYTYPLTFGSGTKLEIKR
notes: as for B5
For B12, the results for the EC50 in experiment [1] and in experiment [2] were 0.4 nM and 5.1 nM, respectively. In experiment [2], the “MFI (6.4 nM)” value was determined as 292000 MFI.

B13: I23RB159 (antibody, mouse IgG2a, kappa, V domains shown)
VH: EVQLQQSGGGLVKPGGSLKLSCAASGFTFSDYGMAWVRQTPRKGPEWIAFISNLAYSVYYSDTVTGRFTISRENAKNTLYLEMSSLRSEDTAMYYCARHGDYRNYGFAYWGLGTTVTVSS
VL: DIVMTQTTSSLSASLGDRVTISCRASQDISNYLNWYQQKPDGTVKLLIYYTSRLHSGVPSRFSGSGSGTDYSLTISNLEQEDIATYFCQQGNTLPWTFGAGTKLELKR
notes: as for B5
B13 displayed an EC50 in experiment [1] above 50 nM.

B14: I23RB177 (antibody, mouse IgG2a, kappa, V domains shown)
VH: EVQLQQSGPELLKPGASVKISCKASGYTITDYTMHWVKQSHGKSLEWIGGINPNYGGTSYNEKFKDKATLTVDKSSSTAYMELRSLTSEDSAVFYCVRGNIYFDYWGQGTTLTVSS
VL: NTQMTQSPSSMYASLGERVTITCKASQDINSYLSWFQQKPGKSPKALIYRANRLVDGVPSRFSGSGSGQDYSLTISSLEYEDMGIYYCQQYDEFPRTFGAGTKLELKR
notes: as for B5
On to B14, for which the EC50 in experiment [1] is above 50 nM.
